This passage reports Kd results from article PMC10786891, “Massively parallel profiling of RNA-targeting CRISPR-Cas13d”.

Where a chain is given by its changes, count along the chain named. Names and notes keep the numbering of the source.

B1: target 2 MT 5'PFS CGG 3'PFS CAC (mixed)
RNA 1: CACCCGUGCAAAAUUGCAGGGGUCUAAAACCUUCUCCAAAUUGUUUCAUCCU
RNA 2: GGGAAUGGAUCCACAUCUACGAAUUCCGGAGGAUGAAACAAUUUGGAGAAGCACAGAUCGGAAGAGCACACGU
B2: target 2 MT 5'PFS CAG 3'PFS ACC (mixed)
RNA 1: B1 RNA 1
RNA 2: B1 RNA 2 with G28A, C52A, A53C
B3: target 2 MT 5'PFS UAG 3'PFS CCU (mixed)
RNA 1: B1 RNA 1
RNA 2: B1 RNA 2 with C27U, G28A, A53C, C54U
B4: target 2 MT 5'PFS UAG 3'PFS AAG (mixed)
RNA 1: B1 RNA 1
RNA 2: B1 RNA 2 with C27U, G28A, C52A, C54G
B5: target 2 MT 5'PFS GAU 3'PFS UCG (mixed)
RNA 1: B1 RNA 1
RNA 2: B1 RNA 2 with C27G, G28A, G29U, C52U, A53C, C54G
B6: target 2 MT 5'PFS AAG 3'PFS ACU (mixed)
RNA 1: B1 RNA 1
RNA 2: B1 RNA 2 with C27A, G28A, C52A, A53C, C54U
B7: target 2 MT 5'PFS UCG 3'PFS UCA (mixed)
RNA 1: B1 RNA 1
RNA 2: B1 RNA 2 with C27U, G28C, C52U, A53C, C54A
B8: target 2 MT 5'PFS ACA 3'PFS AUC (mixed)
RNA 1: B1 RNA 1
RNA 2: B1 RNA 2 with C27A, G28C, G29A, C52A, A53U
B9: target 2 MT 5'PFS AGG 3'PFS AUC (mixed)
RNA 1: B1 RNA 1
RNA 2: B1 RNA 2 with C27A, C52A, A53U
B10: target 2 MT 5'PFS AUU 3'PFS CUC (mixed)
RNA 1: B1 RNA 1
RNA 2: B1 RNA 2 with C27A, G28U, G29U, A53U
B11: target 2 MT 5'PFS CUC 3'PFS UUC (mixed)
RNA 1: B1 RNA 1
RNA 2: B1 RNA 2 with G28U, G29C, C52U, A53U
B12: target 2 MT 5'PFS AUU 3'PFS CUA (mixed)
RNA 1: B1 RNA 1
RNA 2: B1 RNA 2 with C27A, G28U, G29U, A53U, C54A
B13: target 2 MT 5'PFS GAU 3'PFS UCC (mixed)
RNA 1: B1 RNA 1
RNA 2: B1 RNA 2 with C27G, G28A, G29U, C52U, A53C
B14: target 2 MT 5'PFS UUA 3'PFS UGU (mixed)
RNA 1: B1 RNA 1
RNA 2: B1 RNA 2 with C27U, G28U, G29A, C52U, A53G, C54U
B15: target 2 MT 5'PFS AUU 3'PFS CUG (mixed)
RNA 1: B1 RNA 1
RNA 2: B1 RNA 2 with C27A, G28U, G29U, A53U, C54G
B16: target 2 MT 5'PFS CUC 3'PFS UUA (mixed)
RNA 1: B1 RNA 1
RNA 2: B1 RNA 2 with G28U, G29C, C52U, A53U, C54A
B17: target 2 MT 5'PFS UGA 3'PFS AUC (mixed)
RNA 1: B1 RNA 1
RNA 2: B1 RNA 2 with C27U, G29A, C52A, A53U
B18: target 2 MT 5'PFS ACA 3'PFS AUA (mixed)
RNA 1: B1 RNA 1
RNA 2: B1 RNA 2 with C27A, G28C, G29A, C52A, A53U, C54A
B19: target 2 MT 5'PFS CAG 3'PFS UGA (mixed)
RNA 1: B1 RNA 1
RNA 2: B1 RNA 2 with G28A, C52U, A53G, C54A
B20: target 2 MT 5'PFS GAU 3'PFS UCA (mixed)
RNA 1: B1 RNA 1
RNA 2: B1 RNA 2 with C27G, G28A, G29U, C52U, A53C, C54A
B21: target 2 MT 5'PFS AUU 3'PFS UCC (mixed)
RNA 1: B1 RNA 1
RNA 2: B1 RNA 2 with C27A, G28U, G29U, C52U, A53C
B22: target 2 MT 5'PFS UAG 3'PFS CCG (mixed)
RNA 1: B1 RNA 1
RNA 2: B1 RNA 2 with C27U, G28A, A53C, C54G
B23: target 2 MT 5'PFS UGA 3'PFS AUA (mixed)
RNA 1: B1 RNA 1
RNA 2: B1 RNA 2 with C27U, G29A, C52A, A53U, C54A
B24: target 2 MT 5'PFS UAG 3'PFS AAA (mixed)
RNA 1: B1 RNA 1
RNA 2: B1 RNA 2 with C27U, G28A, C52A, C54A
B25: target 2 MT 5'PFS CAG 3'PFS UGC (mixed)
RNA 1: B1 RNA 1
RNA 2: B1 RNA 2 with G28A, C52U, A53G
B26: target 2 MT 5'PFS CGG 3'PFS CAA (mixed)
RNA 1: B1 RNA 1
RNA 2: B1 RNA 2 with C54A
B27: target 2 MT 5'PFS CGG 3'PFS CAU (mixed)
RNA 1: B1 RNA 1
RNA 2: B1 RNA 2 with C54U
B28: target 2 MT 5'PFS UAG 3'PFS AAU (mixed)
RNA 1: B1 RNA 1
RNA 2: B1 RNA 2 with C27U, G28A, C52A, C54U
B29: target 2 MT 5'PFS CUC 3'PFS UUU (mixed)
RNA 1: B1 RNA 1
RNA 2: B1 RNA 2 with G28U, G29C, C52U, A53U, C54U
B30: target 2 MT 5'PFS CGG 3'PFS CAG (mixed)
RNA 1: B1 RNA 1
RNA 2: B1 RNA 2 with C54G
B31: target 2 MT 5'PFS UAG 3'PFS AAC (mixed)
RNA 1: B1 RNA 1
RNA 2: B1 RNA 2 with C27U, G28A, C52A
B32: target 2 MT 5'PFS UGA 3'PFS AUU (mixed)
RNA 1: B1 RNA 1
RNA 2: B1 RNA 2 with C27U, G29A, C52A, A53U, C54U
B33: target 2 MT 5'PFS UAG 3'PFS CCA (mixed)
RNA 1: B1 RNA 1
RNA 2: B1 RNA 2 with C27U, G28A, A53C, C54A
B34: target 1 insC 3' of 12,insG 3' of 4 (mixed)
RNA 1: CACCCGUGCAAAAAUGCAGGGGUCUAAAACUGAGCGGAUAACCUCUCUAUGG
RNA 2: GGGAAUGGAUCCACAUCUACGAAUUCGUACCAUAGAGAGGCUUAUCCGCGUCACCGAGAUCGGAAGAGCACACGU
B35: target 1 C4A,A18U (mixed)
RNA 1: B34 RNA 1
RNA 2: GGGAAUGGAUCCACAUCUACGAAUUCGUACCAUUGAGAGGUUAUCCGAUCACCGAGAUCGGAAGAGCACACGU
B36: target 1 C2G,G17C (mixed)
RNA 1: B34 RNA 1
RNA 2: B35 RNA 2 with U34A, G35C, A48C, C50G

The data set deals with T1, EsCas13d, nuclease-dead (Eubacterium siraeum, UniProt B0MS50, R295A;H300A;R849A;H854A).
T1 sequence: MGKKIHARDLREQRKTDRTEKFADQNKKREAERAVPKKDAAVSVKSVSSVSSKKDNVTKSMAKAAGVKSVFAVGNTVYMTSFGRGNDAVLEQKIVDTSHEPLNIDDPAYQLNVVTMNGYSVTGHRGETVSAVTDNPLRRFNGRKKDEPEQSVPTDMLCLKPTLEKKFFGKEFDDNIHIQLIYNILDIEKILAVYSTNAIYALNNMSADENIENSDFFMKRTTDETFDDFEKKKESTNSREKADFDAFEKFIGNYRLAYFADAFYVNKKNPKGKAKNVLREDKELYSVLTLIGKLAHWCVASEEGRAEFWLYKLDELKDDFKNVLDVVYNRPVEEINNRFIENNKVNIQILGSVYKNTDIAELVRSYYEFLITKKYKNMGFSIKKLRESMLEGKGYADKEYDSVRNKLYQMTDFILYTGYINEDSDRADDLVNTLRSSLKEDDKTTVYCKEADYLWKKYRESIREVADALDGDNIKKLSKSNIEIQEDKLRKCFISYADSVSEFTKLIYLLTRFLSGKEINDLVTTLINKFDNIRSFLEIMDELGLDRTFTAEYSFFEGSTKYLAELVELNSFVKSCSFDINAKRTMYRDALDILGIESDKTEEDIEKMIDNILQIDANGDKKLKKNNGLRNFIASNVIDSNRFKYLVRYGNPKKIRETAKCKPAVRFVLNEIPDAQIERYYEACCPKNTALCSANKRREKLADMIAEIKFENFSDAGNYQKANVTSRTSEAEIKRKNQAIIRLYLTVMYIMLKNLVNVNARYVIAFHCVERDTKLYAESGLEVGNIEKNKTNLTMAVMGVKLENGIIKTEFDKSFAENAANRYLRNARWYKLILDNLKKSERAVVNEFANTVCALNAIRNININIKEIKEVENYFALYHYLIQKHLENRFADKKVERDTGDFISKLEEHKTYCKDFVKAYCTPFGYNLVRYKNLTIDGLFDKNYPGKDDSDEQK
In words: crRNA (strand 1, pre-loaded); Mg2+; 40 mM Tris-HCl pH 7.5, 150 mM NaCl, 6 mM MgCl2, 1 mM DTT, 0.1% Tween-20, 0.2 mg/ml BSA; 25 C; 10 min per concentration, then washed. The note with it: tags: His6-TwinStrep-SUMO cleaved; N-terminal SNAP kept (SNAP-Surface 488); label: 3' end held by stalled T7 RNA polymerase.
As a reminder, the Kd is the equilibrium constant for the complex coming apart. Higher therefore signals lower affinity. As to B1, the Kd came to 6.8 ± 1.3 nM.

B2 yielded a Kd of 5.5 ± 1.1 nM. The figure for B3 is 54 ± 17 nM. The figure for B4 is 2.87 ± 0.28 nM; for B5 it is 15.2 ± 1.5 nM. The same measure for B6: 9 ± 1.3 nM; for B7: 21 ± 5 nM. Consider B8, for which the Kd worked out at 6.2 ± 1.3 nM. B9 registered a Kd of 5.5 ± 0.6 nM. The figure for B10 is 16.6 ± 3.1 nM. The figure for B11 is 6.5 ± 1.6 nM; for B12 it is 14 ± 4 nM. The same measure for B13: approximately 80 nM.

B14 gave a Kd of 23.1 ± 3 nM. The same measure for B15: 9.7 ± 1.3 nM. The figure for B16 is 4.9 ± 0.7 nM; for B17 it is 8.7 ± 1.1 nM; for B18 it is 5.7 ± 1.1 nM. The same measure for B19: 6.8 ± 1.4 nM; for B20: 21 ± 7 nM; for B21: 16.7 ± 1.8 nM. B22 gave a Kd of 2.56 ± 0.17 nM. The same measure for B23: 7.1 ± 1.4 nM; for B24: 2.2 ± 0.4 nM. Consider B25, for which the Kd came to 4.7 ± 1.2 nM.

As for B26, binding was put at a Kd of 3.4 ± 0.5 nM.

As for B27, the Kd worked out at 4.4 ± 0.5 nM.

In turn, B28 yielded a Kd of 3.8 ± 0.5 nM. The same measure for B29: 5.3 ± 0.7 nM.

With B30, binding was characterised by a dissociation constant (Kd) of 4.3 ± 0.6 nM. The same measure for B31: 3.6 ± 0.4 nM; for B32: 7.5 ± 1.3 nM. The figure for B33 is 5.1 ± 0.4 nM; for B34 it is 5.7 ± 0.5 nM.

In turn, B35 returned an equilibrium dissociation constant (Kd) of 21.1 ± 2.4 nM. The figure for B36 is 50 ± 6 nM.
